{"source": "patent US12006519B2", "about": "“Polymerase mutants and use with 3′-OH unblocked reversible terminators” (Agilent Technologies, Inc., priority 2021, dated 2024)", "molecules": {"B1": {"name": "K477M: Therminator with mutation K477M (9° N DNA pol numbering) (protein, UniProt Q56366 1-775, looked up, variant D141A E143A A485L K477M)", "DNA polymerase": "MILDTDYITENGKPVIRVFKKENGEFKIEYDRTFEPYFYALLKDDSAIEDVKKVTAKRHGTVVKVKRAEKVQKKFLGRPIEVWKLYFNHPQDVPAIRDRIRAHPAVVDIYEYDIPFAKRYLIDKGLIPMEGDEELTMLAFAIATLYHEGEEFGTGPILMISYADGSEARVITWKKIDLPYVDVVSTEKEMIKRFLRVVREKDPDVLITYNGDNFDFAYLKKRCEELGIKFTLGRDGSEPKIQRMGDRFAVEVKGRIHFDLYPVIRRTINLPTYTLEAVYEAVFGKPKEKVYAEEIAQAWESGEGLERVARYSMEDAKVTYELGREFFPMEAQLSRLIGQSLWDVSRSSTGNLVEWFLLRKAYKRNELAPNKPDERELARRRGGYAGGYVKEPERGLWDNIVYLDFRSLYPSIIITHNVSPDTLNREGCKEYDVAPEVGHKFCKDFPGFIPSLLGDLLEERQKIKRKMKATVDPLEKMLLDYRQRLIKILANSFYGYYGYAKARWYCKECAESVTAWGREYIEMVIRELEEKFGFKVLYADTDGLHATIPGADAETVKKKAKEFLKYINPKLPGLLELEYEGFYVRGFFVTKKKYAVIDEEGKITTRGLEIVRRDWSEIAKETQARVLEAILKHGDVEEAVRIVKEVTEKLSKYEVPPEKLVIHEQITRDLRDYKATGPHVAVAKRLAARGVKIRPGTVISYIVLKGSGRIGDRAIPADEFDPTKHRYDAEYYIENQVLPAVERILKAFGYRKEDLRYQKTKQVGLGAWLKVKGKK", "modifications": "Therminator"}, "B2": {"name": "T144G: Therminator with mutation T144G (9° N DNA pol numbering) (protein, UniProt Q56366 1-775, looked up, variant D141A E143A A485L T144G)", "DNA polymerase": "B1 DNA polymerase with T144G, M477K", "modifications": "Therminator"}, "B3": {"name": "G153D: Therminator with mutation G153D (9° N DNA pol numbering) (protein, UniProt Q56366 1-775, looked up, variant D141A E143A A485L G153D)", "DNA polymerase": "B1 DNA polymerase with G153D, M477K", "modifications": "Therminator"}, "B4": {"name": "Pfu1: Pfu DNA polymerase with D141A/E143A/A486L (protein, UniProt P61875 1-775, looked up, variant D141A E143A A486L)", "DNA polymerase": "MILDVDYITEEGKPVIRLFKKENGKFKIEHDRTFRPYIYALLRDDSKIEEVKKITGERHGKIVRIVDVEKVEKKFLGKPITVWKLYLEHPQDVPTIREKVREHPAVVDIFEYDIPFAKRYLIDKGLIPMEGEEELKILAFAIATLYHEGEEFGKGPIIMISYADENEAKVITWKNIDLPYVEVVSSEREMIKRFLRIIREKDPDIIVTYNGDSFDFPYLAKRAEKLGIKLTIGRDGSEPKMQRIGDMTAVEVKGRIHFDLYHVITRTINLPTYTLEAVYEAIFGKPKEKVYADEIAKAWESGENLERVAKYSMEDAKATYELGKEFLPMEIQLSRLVGQPLWDVSRSSTGNLVEWFLLRKAYERNEVAPNKPSEEEYQRRLRESYTGGFVKEPEKGLWENIVYLDFRALYPSIIITHNVSPDTLNLEGCKNYDIAPQVGHKFCKDIPGFIPSLLGHLLEERQKIKTKMKETQDPIEKILLDYRQKLIKLLANSFYGYYGYAKARWYCKECAESVTAWGRKYIELVWKELEEKFGFKVLYIDTDGLYATIPGGESEEIKKKALEFVKYINSKLPGLLELEYEGFYKRGFFVTKKRYAVIDEEGKVITRGLEIVRRDWSEIAKETQARVLETILKHGDVEEAVRIVKEVIQKLANYEIPPEKLAIYEQITRPLHEYKAIGPHVAVAKKLAAKGVKIKPGMVIGYIVLRGDGPISNRAILAEEYDPKKHKYDAEYYIENQVLPAVLRILEGFGYRKEDLRYQKTRQVGLTSWLNIKKS"}, "B5": {"name": "Pfu10-N12: Pfu10 variant with 15 conservative mutations plus M129A, SEQ ID NO:3 (protein)", "chain": "MILDVDYITEEGKPIIRLFKKENGKFRIEHDRTFRPYIYALLRDDSKIEEIKKITGERHGKIVRIVDVEKVEKKFLGKPVTVWRLYLEHPQDVPTIREKVKEHPAVIDIFEYDIPFAKRYLIDKGLVPAEGEEELKILAFAIATLYHEGEEFGKGPIIMISYADENEAKVITWKNIDLPYVEVVSSEREMIKRFVKIIKEKDPDIIVTYNGDSFDFPYLAKRAEKLGVKLTIGRDGSEPKMQRIGDMTAVEVKGRIHFDLYHVITRTINLPTYTLEAVYEAIFGKPKEKVYADEIAKAWESGENLERVAKYSMEDAKATYELGKEFLPMEIQLSRLVGQPLWDVSRSSTGNLVEWFLLRKAYERNEVAPNKPSEEEYQRRLRESYTGGFVKEPEKGLWENIVYLDFRALYPSIIITHNVSPDTLNLEGCKNYDIAPQVGHKFCKDIPGFIPSLLGHLLEERQKIKTKMKETQDPIEWILLDYRQKLIKLLANSFYGYYGYARARWYCRECAESVTAWGRKYIELTWKELEEKFGFKVLYIDTDGLHATIPGGESEEIKKKALEFVKYINSKLPGLLELEYEGFYKRGFFVTKKRYAVIDEEGKVITRGLEIVRRDWSEIAKETQARVLETILKHGDVEEAVRIVKEVIQKLANYEIPPEKLAIYEQITRPLHEYKAIGPHVAVAKKLAAKGVKIKPGMVIGYIVLRGDGPISNRAILAEEYDPKKHKYDAEYYIENQVLPAVLRILEGFGYRKEDLRYQKTRQVGLTSWLNIKKS", "modifications": "Mutant of Pyrococcus furiosus Polymerase"}}, "assay_type_in_all_cases": "biochemical", "key": {"Lightning Terminators [1]": {"tested_on": "Lightning Terminators", "test": "Sequencing-by-synthesis with Lightning Terminators (87 cycles)", "design": "ARL (87 cycles) / Lead + Lag / Leading / Lagging: unit not given here", "protocol": "(§1) This section generally describes how the present mutant polymerases were used for sequencing-by-synthesis, and how their performance in sequencing was measured. Sequencing was performed on a breadboard instrument, essentially as described in Hertzog D, et al., “A high-performance, low-cost approach to next-generation sequencing”, BioOptics World. 2011 Issue November/December 2011.\nIn this example, mutations were introduced into the DNA polymerase of SEQ ID NO: 12 (Therminator) in an attempt to improve its capability in sequencing with 3′-OH unblocked terminators. Such mutations to Thermococcus sp. 9° N DNA polymerase are disclosed in U.S. Pat. Nos. 9,273,352; 9,677,059; 9,765,309; U.S. Pat. App. Publication No. 20160032377. The following table summarizes sequencing metrics with Lightning Terminators.\nAs used in this example and those that follow, “Lead+Lag” refers to dephasing errors in Sequencing by Synthesis technology caused by either reading the next base signal (Lead) or reading the previous base signal (Lag) relative to current base signals. Such errors may arise because of imperfect incoporation of reversible terminators by the polymerase.\nIn this example, mutant polymerases were created by introducing certain mutations (D141A/E143A/A485L) which are present in Therminator. The three mutations were introduced at the equivalent positions in JDF3 (Thermococcus sp. JDF3) and Pfu (Pyrococcus furisosus) DNA polymerases. The new mutant polymerases were then evaluated for their performance in sequencing with Lightning Terminators, as described above."}, "Lightning Terminators [2]": {"tested_on": "Lightning Terminators", "test": "Plate-based assay, incorporation of Lightning Terminators by control extracts", "conditions": "control extracts, FIG. 6, FIGS. 7A-7B", "protocol": "In this example, additional mutant polymerases were derived from Pfu polymerase. To generate the mutants, eighty-seven codons in the Pfu pol B gene were saturated using the QuikChange Lightning Mutagenesis kit and oligonucleotides containing “NDT” codons to create R, N, D, C, G, H, I, L, F, S, Y, and V substitutions with equal frequency. In some cases, mutants missing from NDT libraries were prepared in a separate QuikChange reaction with an equimolar mixture of mutagenic oligos encoding the remaining mutations (A, T, K, Q, E, P, […], W). Thirty-two clones were randomly selected from each QuikChange library (with the exception of T267, Y403, Y410, I475, G499 and K675 libraries which generated fewer transformants). Bacterial lysates were prepared and screened for incorporation of LTA and LTC using a plate-based assay with immobilized primer-templates. A limited number of mutants were also screened for utilization of LTG and LTU (similar trends; data not shown). After washing and UV cleavage (to minimize dye quenching effects), plates were read and fluorescent signals compared to Pfu controls. The following table identifies four mutant Pfu polymerases that served as controls, which were given the arbitrary names Pfu5, Pfu1, and Pfu2, along with Pfu10 (which is discussed above).\nSelected lysates, based on screening results, were submitted for sequencing, and an amino acid identification was made based on the selections. […] As shown in Example 3, K477W benefits sequencing by increasing the fraction of full-length reads."}, "Human DNA library": {"tested_on": "Human DNA library", "test": "Sequencing with Lightning Terminators, Human DNA library (120 cycles)", "protocol": "as §1\n(§2) In this example, a variety of mutations were introduced into Pfu10 by multi-site mutagenesis or into Pfu A486L/Y546H by domain substitutions to explore an acceptable degree of reduced identity and identify other mutant Pfu polymerases containing L486, F494, H546, and W477. […] Pfu10 and Pfu10-N12 were evaluated for performance in sequencing with Lightning Terminators, as described above."}, "E. coli DNA library": {"tested_on": "E. coli DNA library", "test": "Sequencing with Lightning Terminators, E. coli DNA library (120 cycles)", "protocol": "as §1, §2"}, "[3]": {"conditions": "Therminator mutants, same unit concentrations (0.08 U/ul in cycle 1 and 0.008 U/ul in cycles 2-n)"}, "[4]": {"conditions": "alternative polymerases (D141A/E143A), same protein concentrations (0.02 ug/uL in cycle 1 and 0.002 ug/uL in cycles 2-n)"}}, "note": "Changes are numbered by the printed parent chain. Numbers in names are those of the source.", "data": [{"molecule": "B1", "values": [{"measurement": "% reads >85 bp", "setting": "Lightning Terminators [1]; [3]", "value": 27.7, "unit": "%"}, {"measurement": "ARL (87 cycles)", "setting": "Lightning Terminators [1]; [3]", "value": 68.8}, {"measurement": "Lead + Lag", "setting": "Lightning Terminators [1]; [3]", "value": 1.6}]}, {"molecule": "B2", "values": [{"measurement": "% reads >85 bp", "setting": "Lightning Terminators [1]; [3]", "value": 31.8, "unit": "%"}, {"measurement": "ARL (87 cycles)", "setting": "Lightning Terminators [1]; [3]", "value": 70.5}, {"measurement": "Lead + Lag", "setting": "Lightning Terminators [1]; [3]", "value": 1.4}]}, {"molecule": "B3", "values": [{"measurement": "% reads >85 bp", "setting": "Lightning Terminators [1]; [3]", "value": 21.5, "unit": "%"}, {"measurement": "ARL (87 cycles)", "setting": "Lightning Terminators [1]; [3]", "value": 66.7}, {"measurement": "Lead + Lag", "setting": "Lightning Terminators [1]; [3]", "value": 1.8}]}, {"molecule": "B4", "values": [{"measurement": "% reads >85", "setting": "Lightning Terminators [1]; [4]", "value": 9.9, "unit": "%"}, {"measurement": "ARL (87 cycles)", "setting": "Lightning Terminators [1]; [4]", "value": 54.9}, {"measurement": "Lead + Lag", "setting": "Lightning Terminators [1]; [4]", "value": 2.1}, {"measurement": "Utilization of Lightning Terminators (in words)", "setting": "Lightning Terminators [2]", "value": "could utilize Lightning Terminators"}]}, {"molecule": "B5", "values": [{"measurement": "% reads >85", "setting": "Human DNA library; Human DNA library", "value": 93.3, "unit": "%"}, {"measurement": "ARL (120 cycles)", "setting": "Human DNA library; Human DNA library", "value": 111.6}, {"measurement": "FracQ30", "setting": "Human DNA library; Human DNA library", "value": 0.68}, {"measurement": "Lead + Lag", "setting": "Human DNA library; Human DNA library", "value": 1.0}, {"measurement": "Sequencing performance with Lightning Terminators (in words)", "setting": "Human DNA library; Human and E. coli libraries, compared with Pfu10", "value": "performs comparably if not slightly better than Pfu10"}, {"measurement": "% reads >85", "setting": "E. coli DNA library", "value": 82.6, "unit": "%"}, {"measurement": "ARL (120 cycles)", "setting": "E. coli DNA library", "value": 93.8}, {"measurement": "FracQ30", "setting": "E. coli DNA library", "value": 0.65}, {"measurement": "Lead + Lag", "setting": "E. coli DNA library", "value": 0.9}]}]}
